# According to publication PMC9788986, “Dynamic chromatin accessibility deploys heterotypic cis/trans-acting factors driving stomatal cell-fate commitment” (Nature Plants, 2022):
# T1: His tagged BPC1 (1-283) (A. thaliana, UniProt Q9SKD0 1-283)
# T1 chain: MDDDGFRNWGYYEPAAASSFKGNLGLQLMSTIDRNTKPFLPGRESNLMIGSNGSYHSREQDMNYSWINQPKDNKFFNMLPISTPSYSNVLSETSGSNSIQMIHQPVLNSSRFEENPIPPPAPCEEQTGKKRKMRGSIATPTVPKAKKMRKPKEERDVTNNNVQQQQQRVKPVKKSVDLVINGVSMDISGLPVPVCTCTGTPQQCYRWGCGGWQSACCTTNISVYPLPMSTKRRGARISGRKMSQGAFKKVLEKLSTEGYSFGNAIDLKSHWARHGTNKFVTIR
# T2: His tagged BPC2 (1-279) (A. thaliana, UniProt Q9LDE2 1-279)
# T2 chain: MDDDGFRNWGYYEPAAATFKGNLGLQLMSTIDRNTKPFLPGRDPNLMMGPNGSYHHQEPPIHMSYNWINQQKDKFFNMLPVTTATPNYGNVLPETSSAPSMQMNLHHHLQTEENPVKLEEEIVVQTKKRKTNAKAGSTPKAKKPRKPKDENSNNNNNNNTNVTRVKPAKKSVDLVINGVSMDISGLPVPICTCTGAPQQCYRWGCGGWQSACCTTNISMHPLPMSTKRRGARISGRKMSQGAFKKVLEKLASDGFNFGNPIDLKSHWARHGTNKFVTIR
# T3: MUTE-SCRM heterodimer (A. thaliana, UniProt Q9M8K6 1-202; Q9LSE2 1-494)
# T3 construct: MUTE, Arabidopsis thaliana, residues 1-202, in pET28a; also called SCRM-MUTE heterodimer; source: E. coli BL21, purified (MUTE: Ni-NTA, gel filtration; SCRM: glutathione resin, thrombin, gel filtration); not shown: GST, N-terminal, cleaved
# T3 sequence (looked up) 1: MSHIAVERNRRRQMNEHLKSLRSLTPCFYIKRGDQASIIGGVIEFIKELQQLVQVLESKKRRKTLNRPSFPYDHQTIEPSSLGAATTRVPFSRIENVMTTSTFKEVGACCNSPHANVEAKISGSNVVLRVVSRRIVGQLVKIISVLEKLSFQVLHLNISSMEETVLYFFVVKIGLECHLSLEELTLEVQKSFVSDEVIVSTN
# T3 sequence (looked up) 2: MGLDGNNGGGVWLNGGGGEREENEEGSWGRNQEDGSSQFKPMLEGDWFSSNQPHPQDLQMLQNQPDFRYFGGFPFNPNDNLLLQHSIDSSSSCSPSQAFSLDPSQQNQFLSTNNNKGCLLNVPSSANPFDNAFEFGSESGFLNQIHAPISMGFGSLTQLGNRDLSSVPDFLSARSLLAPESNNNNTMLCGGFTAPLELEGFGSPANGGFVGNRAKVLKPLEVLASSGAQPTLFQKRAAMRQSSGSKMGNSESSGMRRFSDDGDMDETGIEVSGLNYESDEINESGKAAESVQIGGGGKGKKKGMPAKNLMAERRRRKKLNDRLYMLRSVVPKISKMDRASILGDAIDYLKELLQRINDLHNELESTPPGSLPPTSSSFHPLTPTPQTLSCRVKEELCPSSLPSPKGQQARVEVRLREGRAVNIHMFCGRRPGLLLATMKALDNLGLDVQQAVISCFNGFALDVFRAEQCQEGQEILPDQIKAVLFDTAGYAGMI
# Experiments:
# His tagged BPC1 (1-283) = target: T1, His tagged BPC1 (1-283); assay: BLI
# His tagged BPC2 (1-279) = target: T2, His tagged BPC2 (1-279); assay: BLI
# MUTE-SCRM heterodimer = target: T3, MUTE-SCRM heterodimer; assay: BLI; Octet Red96; Ni-NTA probes loaded with 500 nM His tagged BPC1 or BPC2; heterodimer as analyte at seven concentrations (200 to 3.12 nM by the methods); 30 °C; 1× PBS with 0.02% Tween 20; 1:1 model, Kd by steady-state analysis; conditions: both partners purified
Binder,Kd (His tagged BPC1 (1-283)) [nM],Kd (His tagged BPC2 (1-279)) [nM],Kd (MUTE-SCRM heterodimer) [nM]
SPCH-SCRM heterodimer (complex) chain 1: MQEIIPDFLEECEFVDTSLAGDDLFAILESLEGAGEISPTAASTPKDGTTSSKELVKDQDYENSSPKRKKQRLETRKEEDEEEEDGDGEAEEDNKQDGQQKMSHVTVERNRRKQMNEHLTVLRSLMPCFYVKRGDQASIIGGVVEYISELQQVLQSLEAKKQRKTYAEVLSPRVVPSPRPSPPVLSPRKPPLSPRINHHQIHHHLLLPPISPRTPQPTSPYRAIPPQLPLIPQPPLRSYSSLASCSSLGDPPPYSPASSSSSPSVSSNHESSVINELVANSKSALADVEVKFSGANVLLKTVSHKIPGQVMKIIAALEDLALEILQVNINTVDETMLNSFTIKIGIECQLSAEELAQQIQQTFC chain 2: MGLDGNNGGGVWLNGGGGEREENEEGSWGRNQEDGSSQFKPMLEGDWFSSNQPHPQDLQMLQNQPDFRYFGGFPFNPNDNLLLQHSIDSSSSCSPSQAFSLDPSQQNQFLSTNNNKGCLLNVPSSANPFDNAFEFGSESGFLNQIHAPISMGFGSLTQLGNRDLSSVPDFLSARSLLAPESNNNNTMLCGGFTAPLELEGFGSPANGGFVGNRAKVLKPLEVLASSGAQPTLFQKRAAMRQSSGSKMGNSESSGMRRFSDDGDMDETGIEVSGLNYESDEINESGKAAESVQIGGGGKGKKKGMPAKNLMAERRRRKKLNDRLYMLRSVVPKISKMDRASILGDAIDYLKELLQRINDLHNELESTPPGSLPPTSSSFHPLTPTPQTLSCRVKEELCPSSLPSPKGQQARVEVRLREGRAVNIHMFCGRRPGLLLATMKALDNLGLDVQQAVISCFNGFALDVFRAEQCQEGQEILPDQIKAVLFDTAGYAGMI,126,227,–
"His tagged BPC1 (1-283) (natural protein, A. thaliana, UniProt Q9SKD0 1-283, looked up, BPC1 (BASIC … 1), Arabidopsis thaliana, residues 1-283, in pET28a; source: E. coli BL21, purified (Ni-NTA, gel filtration on Superdex-200); not shown: His tag, N-terminal, kept) MDDDGFRNWGYYEPAAASSFKGNLGLQLMSTIDRNTKPFLPGRESNLMIGSNGSYHSREQDMNYSWINQPKDNKFFNMLPISTPSYSNVLSETSGSNSIQMIHQPVLNSSRFEENPIPPPAPCEEQTGKKRKMRGSIATPTVPKAKKMRKPKEERDVTNNNVQQQQQRVKPVKKSVDLVINGVSMDISGLPVPVCTCTGTPQQCYRWGCGGWQSACCTTNISVYPLPMSTKRRGARISGRKMSQGAFKKVLEKLSTEGYSFGNAIDLKSHWARHGTNKFVTIR",–,–,4.8 ± 1.6
"His tagged BPC2 (1-279) (natural protein, A. thaliana, UniProt Q9LDE2 1-279, looked up, BPC2 (BASIC … 2), Arabidopsis thaliana, residues 1-279, in pET28a; source: E. coli BL21, purified (Ni-NTA, gel filtration on Superdex-200); not shown: His tag, N-terminal, kept) MDDDGFRNWGYYEPAAATFKGNLGLQLMSTIDRNTKPFLPGRDPNLMMGPNGSYHHQEPPIHMSYNWINQQKDKFFNMLPVTTATPNYGNVLPETSSAPSMQMNLHHHLQTEENPVKLEEEIVVQTKKRKTNAKAGSTPKAKKPRKPKDENSNNNNNNNTNVTRVKPAKKSVDLVINGVSMDISGLPVPICTCTGAPQQCYRWGCGGWQSACCTTNISMHPLPMSTKRRGARISGRKMSQGAFKKVLEKLASDGFNFGNPIDLKSHWARHGTNKFVTIR",–,–,11 ± 1.6
